T1: GST-fused talin1 FERM F2–F3 domain
T1 chain: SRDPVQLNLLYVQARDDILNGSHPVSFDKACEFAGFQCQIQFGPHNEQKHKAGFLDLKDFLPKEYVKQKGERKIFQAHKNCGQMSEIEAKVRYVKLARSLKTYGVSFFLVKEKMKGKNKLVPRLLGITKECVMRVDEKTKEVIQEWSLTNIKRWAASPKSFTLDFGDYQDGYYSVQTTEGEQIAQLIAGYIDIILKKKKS

T2: GST-fused talin1 FERM F2–F3 domain (GST carrier omitted. F2-F3 limits are not given; 206-405 is the usual talin1 F2-F3 construct. Mouse is assumed because the other talin1 constructs in the paper are mouse.)
T2 chain: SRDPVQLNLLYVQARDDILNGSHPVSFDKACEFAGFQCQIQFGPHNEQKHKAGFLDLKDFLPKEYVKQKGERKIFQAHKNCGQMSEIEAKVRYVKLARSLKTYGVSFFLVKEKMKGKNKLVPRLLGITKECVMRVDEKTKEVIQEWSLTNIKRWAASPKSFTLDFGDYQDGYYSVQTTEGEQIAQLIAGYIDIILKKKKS


How the values were obtained:
[1] = biological target: HaloTag-fused talin1 (HT-talin1) expressed in BAF/LFA1 cells (UniProt P26039); assay: single-molecule binding analysis (HT-Tln1 imaging in BAF/LFA1 cells); conditions: ICAM1+PMA, read off a plot
Sequence of HaloTag-fused talin1 (HT-talin1) expressed in BAF/LFA1 cells (P26039 whole entry, looked up, the tested form may be a part): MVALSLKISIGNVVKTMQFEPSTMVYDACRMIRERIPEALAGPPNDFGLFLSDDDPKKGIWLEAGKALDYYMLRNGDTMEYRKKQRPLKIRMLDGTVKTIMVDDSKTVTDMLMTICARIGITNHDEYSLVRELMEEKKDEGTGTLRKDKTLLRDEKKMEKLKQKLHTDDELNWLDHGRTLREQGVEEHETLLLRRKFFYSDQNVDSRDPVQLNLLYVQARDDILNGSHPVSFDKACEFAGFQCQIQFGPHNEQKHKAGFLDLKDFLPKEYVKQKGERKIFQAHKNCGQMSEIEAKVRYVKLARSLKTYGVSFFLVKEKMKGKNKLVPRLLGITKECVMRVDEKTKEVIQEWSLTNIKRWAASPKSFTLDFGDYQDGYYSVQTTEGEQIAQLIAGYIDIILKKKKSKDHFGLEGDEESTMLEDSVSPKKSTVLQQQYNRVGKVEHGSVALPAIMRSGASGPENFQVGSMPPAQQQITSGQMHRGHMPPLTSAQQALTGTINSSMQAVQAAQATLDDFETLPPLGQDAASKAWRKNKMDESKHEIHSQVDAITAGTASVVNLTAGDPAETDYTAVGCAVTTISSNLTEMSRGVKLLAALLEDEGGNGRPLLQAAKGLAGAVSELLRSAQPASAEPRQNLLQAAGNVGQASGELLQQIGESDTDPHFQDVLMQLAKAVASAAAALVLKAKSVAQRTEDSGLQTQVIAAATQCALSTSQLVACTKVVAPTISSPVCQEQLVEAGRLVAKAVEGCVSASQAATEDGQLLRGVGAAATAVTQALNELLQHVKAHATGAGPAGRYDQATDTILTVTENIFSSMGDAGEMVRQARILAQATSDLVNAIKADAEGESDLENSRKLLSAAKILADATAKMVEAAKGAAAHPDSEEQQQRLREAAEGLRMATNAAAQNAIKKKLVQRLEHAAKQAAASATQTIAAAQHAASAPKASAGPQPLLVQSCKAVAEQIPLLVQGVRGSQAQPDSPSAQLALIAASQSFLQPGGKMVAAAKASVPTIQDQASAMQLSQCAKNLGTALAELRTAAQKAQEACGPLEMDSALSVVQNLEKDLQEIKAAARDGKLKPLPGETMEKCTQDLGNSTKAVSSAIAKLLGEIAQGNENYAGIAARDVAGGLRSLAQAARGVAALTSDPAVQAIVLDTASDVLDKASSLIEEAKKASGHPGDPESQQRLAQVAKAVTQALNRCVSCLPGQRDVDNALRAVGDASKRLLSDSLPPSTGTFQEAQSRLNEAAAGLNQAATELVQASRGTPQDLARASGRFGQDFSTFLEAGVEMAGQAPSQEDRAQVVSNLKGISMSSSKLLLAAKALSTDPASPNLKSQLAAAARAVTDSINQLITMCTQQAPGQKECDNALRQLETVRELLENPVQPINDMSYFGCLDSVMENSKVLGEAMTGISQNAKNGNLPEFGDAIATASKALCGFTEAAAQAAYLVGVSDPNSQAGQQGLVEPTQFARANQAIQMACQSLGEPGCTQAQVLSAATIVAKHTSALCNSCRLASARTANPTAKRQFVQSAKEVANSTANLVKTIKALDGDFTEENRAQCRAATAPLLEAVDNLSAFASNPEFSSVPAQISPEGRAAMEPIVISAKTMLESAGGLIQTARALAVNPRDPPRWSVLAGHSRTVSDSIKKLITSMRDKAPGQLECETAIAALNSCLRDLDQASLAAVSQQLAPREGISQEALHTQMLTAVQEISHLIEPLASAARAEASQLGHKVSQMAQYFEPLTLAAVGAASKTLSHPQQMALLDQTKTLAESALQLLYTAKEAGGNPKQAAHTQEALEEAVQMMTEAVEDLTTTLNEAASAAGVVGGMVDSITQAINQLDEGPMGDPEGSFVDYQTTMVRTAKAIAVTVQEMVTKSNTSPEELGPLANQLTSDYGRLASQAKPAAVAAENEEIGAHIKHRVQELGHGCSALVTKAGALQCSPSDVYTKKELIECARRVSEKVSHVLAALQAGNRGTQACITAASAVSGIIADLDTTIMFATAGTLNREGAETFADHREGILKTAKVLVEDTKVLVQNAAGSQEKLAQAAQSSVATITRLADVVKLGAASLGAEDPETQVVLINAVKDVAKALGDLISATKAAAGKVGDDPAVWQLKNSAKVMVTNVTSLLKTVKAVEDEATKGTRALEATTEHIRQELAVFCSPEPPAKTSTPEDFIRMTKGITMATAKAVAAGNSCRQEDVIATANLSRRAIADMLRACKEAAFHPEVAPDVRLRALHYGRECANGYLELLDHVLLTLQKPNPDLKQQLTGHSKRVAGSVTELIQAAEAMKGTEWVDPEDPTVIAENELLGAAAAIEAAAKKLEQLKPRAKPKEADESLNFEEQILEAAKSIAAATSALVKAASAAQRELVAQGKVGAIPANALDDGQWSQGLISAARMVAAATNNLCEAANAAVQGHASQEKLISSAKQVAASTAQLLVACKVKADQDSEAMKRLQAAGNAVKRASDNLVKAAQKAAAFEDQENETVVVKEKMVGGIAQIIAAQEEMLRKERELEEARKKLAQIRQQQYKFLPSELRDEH

[2] = biological target: T1, GST-fused talin1 FERM F2–F3 domain; assay: BLI
[3] = biological target: T1, GST-fused talin1 FERM F2–F3 domain; assay: BLI
[4] = biological target: T2, GST-fused talin1 FERM F2–F3 domain; assay: BLI; Octet RH96; GST-talin1 FERM F2–F3 (10 μg/ml) immobilized on Octet GST Biosensors; synthetic integrin CT peptides at 4.9, 14.8, 44.4 and 133 μM as analytes in 25 mM Tris–HCl, 150 mM NaCl, 0.05% Triton X-100, pH 7.5; binding to GST alone subtracted; conditions: both partners purified
[5] = β2β7: n = 1453, β2β7-NND: n = 1726, parent: est. 19

Row | koff [2] | Kd [3] | Molecule | other results
1 |  |  | chimeric LFA1 αLα4/β2β7 (cytoplasmic tails of αL and β2 replaced with those of α4 and β7) (from UniProt P13612;P26010) KQDS to NND (β7 WN linker) | other: binding frequency (events/area) ([1]; β2β7: n = 22, β2β7-NND: n = 14, parent: est. 1.2): 4.7 µm-2; other: frequency of binding time 1 to 10 s (yellow segment) [1, 5]: 23%; other: frequency of binding time, top of stacked bar (1 to 10 s plus >10 s) [1, 5]: 24%
2 | 0.00458 s⁻¹ | 133 µM | KLLITIHDRKEFAKFEEERARAKWDTANNPLYKEATSTFTNITYRGT (GST carrier omitted. F2-F3 limits are not given; 206-405 is the usual talin1 F2-F3 construct. Mouse is assumed because the other talin1 constructs in the paper are mouse.) [synthetic integrin β3 cytoplasmic tail peptide] | 
3 | 0.00509 s⁻¹ | 90.2 µM | KLLMIIHDRREFAKFEKEKMNAKWDTGENPIYKSAVTTVVNPKYEGK (GST carrier omitted. F2-F3 limits are not given; 206-405 is the usual talin1 F2-F3 construct. Mouse is assumed because the other talin1 constructs in the paper are mouse.) [synthetic integrin β1 cytoplasmic tail peptide] | 
4 | 0.00597 s⁻¹ | 124 µM | synthetic integrin β7 cytoplasmic tail peptide (GST carrier omitted. F2-F3 limits are not given; 206-405 is the usual talin1 F2-F3 construct. Mouse is assumed because the other talin1 constructs in the paper are mouse.) peptide: RLSVEIYDRREYSRFEKEQQQLNWKQDSNPLYKSAITTTINPRFQEADSPTL | 
5 | 0.00398 s⁻¹ | 43.5 µM | KALIHLSDLREYRRFEKEKLKSQWNNDNPLFKSATTTVMNPKFAES (GST carrier omitted. F2-F3 limits are not given; 206-405 is the usual talin1 F2-F3 construct. Mouse is assumed because the other talin1 constructs in the paper are mouse.) | 
6 |  |  | KALIHLSDLREYRRFEKEKLKSQWNNDNPLFKSATTTVMNPKFAES (peptide, UniProt P05107 724-769, looked up, integrin β2 cytoplasmic tail peptide; also called β2 integrin; β2-CT; source: synthetic peptide (GenScript)) | fold higher affinity than m25 (β7 peptide) [4]: 3 fold; fold higher affinity than m26 (β3 peptide) [4]: 3 fold; fold higher affinity than m27 (β1 peptide) [4]: 2 fold

Reference: article PMC12637224, “The nonconserved integrin cytoplasmic region determines integrin subtype–specific characteristics by modulating talin1 binding kinetics” (The Journal of Biological Chemistry, 2025)
